In patent US20140087995A1 (published 2014):
Numbered stars: 1 amine (or outer) side, 2 acyl side, 3 side chain; on linkers, the order of the positions; unused ones are H or OH. Bridge positions count the residues as written; N and C are the ends. Side chains are listed from the residue outwards. Ends that are not written are not given here. * marks the point of attachment. C20 diacid = O=C(O)CCCCCCCCCCCCCCCCCCC(=O)*; γGlu = O=C(O)[C@H](CCC(=O)[*:2])N[*:1]

T1: human calcitonin receptor (human, UniProt P30988 25-474)
T1 sequence (looked up): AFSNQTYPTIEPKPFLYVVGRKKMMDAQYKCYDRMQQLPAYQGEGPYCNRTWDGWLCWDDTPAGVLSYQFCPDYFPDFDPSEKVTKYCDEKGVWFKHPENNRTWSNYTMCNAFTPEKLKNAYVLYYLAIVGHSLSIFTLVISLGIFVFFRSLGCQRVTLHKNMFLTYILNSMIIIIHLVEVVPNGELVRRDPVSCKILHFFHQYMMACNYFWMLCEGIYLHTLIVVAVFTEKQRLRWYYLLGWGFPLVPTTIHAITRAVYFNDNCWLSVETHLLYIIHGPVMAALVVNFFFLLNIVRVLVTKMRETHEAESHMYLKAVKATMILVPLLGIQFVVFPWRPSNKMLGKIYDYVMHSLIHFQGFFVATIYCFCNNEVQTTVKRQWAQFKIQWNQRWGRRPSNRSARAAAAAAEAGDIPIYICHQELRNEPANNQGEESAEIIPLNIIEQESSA

T2: human amylin 3(a) receptor (human calcitonin receptor co-expressed with RAMP-3) (human, UniProt P30988 25-474; O60896 24-148, limits assumed)
T2 sequence (looked up) 1: T1 sequence (looked up)
T2 sequence (looked up) 2: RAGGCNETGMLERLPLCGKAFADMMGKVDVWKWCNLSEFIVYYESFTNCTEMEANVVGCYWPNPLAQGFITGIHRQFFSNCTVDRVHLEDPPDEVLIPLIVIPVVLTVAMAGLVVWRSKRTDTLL

B1: N^ε1-[(4S)-4-carboxy-4-(19-carboxynonadecanoylamino)butanoyl]-[His14,Arg17,Pro21,Pro27,His34]-h-amylin (peptide)
peptide: K([γGlu-C20 diacid])CNTATCATQRLAHFLRHSSPNFGAIPSSTNVGHNTY-NH2
modifications: disulfide 2-7; N-terminus assumed
SMILES: CC[C@H](C)[C@H](NC(=O)[C@H](C)NC(=O)CNC(=O)[C@H](Cc1ccccc1)NC(=O)[C@H](CC(N)=O)NC(=O)[C@@H]1CCCN1C(=O)[C@H](CO)NC(=O)[C@H](CO)NC(=O)[C@H](Cc1c[nH]cn1)NC(=O)[C@H](CCCNC(=N)N)NC(=O)[C@H](CC(C)C)NC(=O)[C@H](Cc1ccccc1)NC(=O)[C@H](Cc1c[nH]cn1)NC(=O)[C@H](C)NC(=O)[C@H](CC(C)C)NC(=O)[C@H](CCCNC(=N)N)NC(=O)[C@H](CCC(N)=O)NC(=O)[C@@H](NC(=O)[C@H](C)NC(=O)[C@@H]1CSSC[C@H](NC(=O)[C@@H](N)CCCCNC(=O)CC[C@H](NC(=O)CCCCCCCCCCCCCCCCCCC(=O)O)C(=O)O)C(=O)N[C@@H](CC(N)=O)C(=O)N[C@@H]([C@@H](C)O)C(=O)N[C@@H](C)C(=O)N[C@@H]([C@@H](C)O)C(=O)N1)[C@@H](C)O)C(=O)N1CCC[C@H]1C(=O)N[C@@H](CO)C(=O)N[C@@H](CO)C(=O)N[C@H](C(=O)N[C@@H](CC(N)=O)C(=O)N[C@H](C(=O)NCC(=O)N[C@@H](Cc1c[nH]cn1)C(=O)N[C@@H](CC(N)=O)C(=O)N[C@H](C(=O)N[C@@H](Cc1ccc(O)cc1)C(N)=O)[C@@H](C)O)C(C)C)[C@@H](C)O
notes: also called compound 81
B2: N^ε1-[(4S)-4-carboxy-4-(19-carboxynonadecanoylamino)butanoyl]-[His14,Arg17,Pro21,Pro27,Pro31,Pro34]-h-amylin (peptide)
peptide: K([γGlu-C20 diacid])CNTATCATQRLAHFLRHSSPNFGAIPSSTPVGPNTY-NH2
modifications: disulfide 2-7; N-terminus assumed
SMILES: CC[C@H](C)[C@H](NC(=O)[C@H](C)NC(=O)CNC(=O)[C@H](Cc1ccccc1)NC(=O)[C@H](CC(N)=O)NC(=O)[C@@H]1CCCN1C(=O)[C@H](CO)NC(=O)[C@H](CO)NC(=O)[C@H](Cc1c[nH]cn1)NC(=O)[C@H](CCCNC(=N)N)NC(=O)[C@H](CC(C)C)NC(=O)[C@H](Cc1ccccc1)NC(=O)[C@H](Cc1c[nH]cn1)NC(=O)[C@H](C)NC(=O)[C@H](CC(C)C)NC(=O)[C@H](CCCNC(=N)N)NC(=O)[C@H](CCC(N)=O)NC(=O)[C@@H](NC(=O)[C@H](C)NC(=O)[C@@H]1CSSC[C@H](NC(=O)[C@@H](N)CCCCNC(=O)CC[C@H](NC(=O)CCCCCCCCCCCCCCCCCCC(=O)O)C(=O)O)C(=O)N[C@@H](CC(N)=O)C(=O)N[C@@H]([C@@H](C)O)C(=O)N[C@@H](C)C(=O)N[C@@H]([C@@H](C)O)C(=O)N1)[C@@H](C)O)C(=O)N1CCC[C@H]1C(=O)N[C@@H](CO)C(=O)N[C@@H](CO)C(=O)N[C@H](C(=O)N1CCC[C@H]1C(=O)N[C@H](C(=O)NCC(=O)N1CCC[C@H]1C(=O)N[C@@H](CC(N)=O)C(=O)N[C@H](C(=O)N[C@@H](Cc1ccc(O)cc1)C(N)=O)[C@@H](C)O)C(C)C)[C@@H](C)O

Columns and labels:
[1] = molecular target: T1, human calcitonin receptor; test: cell-based or functional assay
[2] = molecular target: T2, human amylin 3(a) receptor (human …); test: cell-based or functional assay

Row | Binder | Ratio hCT/hAmylin funct. [1] | hCTR funct. EC50 [1] [pM] | hAmylin-R funct. EC50 [2] [pM]
1 | B1 | 13.3 | 1730 | 130
2 | B2 | 4.9 | 345 | 71
